Measured values reported in PMC6261992, “Structural insight into D-xylose utilization by xylose reductase from Scheffersomyces stipitis” (Scientific Reports, 2018).

How the values were obtained:
purified protein [1] = substrate: NC(=O)C1=CN([C@@H]2O[C@H](COP(=O)(O)OP(=O)(O)OC[C@H]3O[C@@H](n4cnc5c(N)ncnc54)[C@H](OP(=O)(O)O)[C@@H]3O)[C@@H](O)[C@H]2O)C=CC1; assay: purified protein; format: biochemical, Scheffersomyces stipitis; conditions: 150 mM NaCl, 100 mM D-xylose, 100 mM Tris-HCl pH 8.0, 303 K, crystal structure of the complex at 2.0 Å, 30.0 °C, varied: cofactor
purified protein [2] = substrate: NC(=O)C1=CN([C@@H]2O[C@H](COP(=O)(O)OP(=O)(O)OC[C@H]3O[C@@H](n4cnc5c(N)ncnc54)[C@H](O)[C@@H]3O)[C@@H](O)[C@H]2O)C=CC1; assay: purified protein; format: biochemical, Scheffersomyces stipitis; conditions: 150 mM NaCl, 100 mM D-xylose, 100 mM Tris-HCl pH 8.0, 303 K, 30.0 °C, varied: cofactor
[3] = molecular target: the molecule itself; assay: SEC; analytical, Superdex increase 200 10/300 GL, 40 mM Tris-HCl pH 8.0, 0 mM NaCl; 0.5 mL at 1 mg/mL; (in 50 and 100 mM NaCl generally separated into monomers)

B1: D-xylose reductase from Scheffersomyces stipitis (enzyme, UniProt P31867 1-318, looked up)
chain: MPSIKLNSGYDMPAVGFGCWKVDVDTCSEQIYRAIKTGYRLFDGAEDYANEKLVGAGVKKAIDEGIVKREDLFLTSKLWNNYHHPDNVEKALNRTLSDLQVDYVDLFLIHFPVTFKFVPLEEKYPPGFYCGKGDNFDYEDVPILETWKALEKLVKAGKIRSIGVSNFPGALLLDLLRGATIKPSVLQVEHHPYLQQPRLIEFAQSRGIAVTAYSSFGPQSFVELNQGRALNTSPLFENETIKAIAAKHGKSPAQVLLRWSSQRGIAIIPKSNTVPRLLENKDVNSFDLDEQDFADIAKLDINLRFNDPWDWDKIPIFV
notes: D-xylose reductase (SsXR) of Scheffersomyces stipitis; cloned NdeI/XhoI into pProEX-HTa; The vector adds a 6x-His tag with an rTEV protease cleavage site at the N-terminus; also called SsXR; XR; source: E. coli BL21(DE3)-T1R, purified (Ni-NTA, gel filtration)
Km (purified protein [1]): 27.7 ± 2 µM | kcat (purified protein [1]): 7.63 ± 0.19 s⁻¹ | Km (purified protein [2]): 136 ± 17 µM | kcat (purified protein [2]): 2.39 ± 0.15 s⁻¹ | stoichiometry N [3]: 2
